From PMC8786643 (iScience, 2022)

Tests used:
[1] = biological target: T1, mouse Glut12/Slc2a12 (Mus musculus, UniProt Q8BFW9); experiment: [[…]-14C]-urate uptake in transiently transfected HEK293 cells; assay type: cell-based; details: 10 µM urate, Krebs-Ringer buffer, pH 5.4, 10 min; labelled compound
T1 construct: full-length wild-type ORF in pEGFP-N1, EGFP-tagged; transient expression in HEK293 cells
T1 sequence (Q8BFW9 1-622): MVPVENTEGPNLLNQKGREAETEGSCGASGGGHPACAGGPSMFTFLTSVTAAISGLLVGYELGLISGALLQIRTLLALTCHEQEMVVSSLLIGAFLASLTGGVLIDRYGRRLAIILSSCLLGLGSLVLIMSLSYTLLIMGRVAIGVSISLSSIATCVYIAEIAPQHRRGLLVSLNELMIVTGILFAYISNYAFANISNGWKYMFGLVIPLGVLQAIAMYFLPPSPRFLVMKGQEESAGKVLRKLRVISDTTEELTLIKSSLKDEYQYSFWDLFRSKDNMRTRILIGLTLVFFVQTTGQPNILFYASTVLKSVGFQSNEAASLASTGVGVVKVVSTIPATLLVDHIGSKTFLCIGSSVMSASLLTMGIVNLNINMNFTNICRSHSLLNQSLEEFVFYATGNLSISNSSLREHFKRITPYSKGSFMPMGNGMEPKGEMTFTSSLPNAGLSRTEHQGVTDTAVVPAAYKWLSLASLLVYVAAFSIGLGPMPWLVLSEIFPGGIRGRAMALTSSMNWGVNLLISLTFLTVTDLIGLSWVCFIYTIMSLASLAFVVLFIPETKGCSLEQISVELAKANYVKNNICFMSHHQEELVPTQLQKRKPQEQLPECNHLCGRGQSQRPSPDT

[2] = substrate: O=C1O[C@H]([C@@H](O)CO)C(O)=C1O; experiment: cells, lysate or membranes; details: Krebs-Ringer buffer, pH 5.4, 37 °C, labelled compound

O=c1[nH]c(=O)c2[nH]c(=O)[nH]c2[nH]1 [urate]
[8-14C]-urate uptake in transiently transfected HEK293 cells [1]: cell-based urate uptake assays using human GLUT12- and mouse Glut12-expressing HEK293 cells were conducted

B1: human GLUT12/SLC2A12 (Homo sapiens) (protein)
chain: MVPVENTEGPSLLNQKGTAVETEGSGSRHPPWARGCGMFTFLSSVTAAVSGLLVGYELGIISGALLQIKTLLALSCHEQEMVVSSLVIGALLASLTGGVLIDRYGRRTAIILSSCLLGLGSLVLILSLSYTVLIVGRIAIGVSISLSSIATCVYIAEIAPQHRRGLLVSLNELMIVIGILSAYISNYAFANVFHGWKYMFGLVIPLGVLQAIAMYFLPPSPRFLVMKGQEGAASKVLGRLRALSDTTEELTVIKSSLKDEYQYSFWDLFRSKDNMRTRIMIGLTLVFFVQITGQPNILFYASTVLKSVGFQSNEAASLASTGVGVVKVISTIPATLLVDHVGSKTFLCIGSSVMAASLVTMGIVNLNIHMNFTHICRSHNSINQSLDESVIYGPGNLSTNNNTLRDHFKGISSHSRSSLMPLRNDVDKRGETTSASLLNAGLSHTEYQIVTDPGDVPAFLKWLSLASLLVYVAAFSIGLGPMPWLVLSEIFPGGIRGRAMALTSSMNWGINLLISLTFLTVTDLIGLPWVCFIYTIMSLASLLFVVMFIPETKGCSLEQISMELAKVNYVKNNICFMSHHQEELVPKQPQKRKPQEQLLECNKLCGRGQSRQLSPET
Km ([2]; 5 min uptake): 0.846 mM

B2: mouse Glut12/Slc2a12 (Mus musculus) (protein)
chain: T1 sequence (Q8BFW9 1-622)
Km [2]: 1.245 mM
